From patent US6117653 come the findings set out here.

Assay in all cases: ELISA of pooled CsCl fractions 9-15 of the purified particle
(In general: An ELISA detects its analyte on a solid surface through an enzyme-linked reagent.)

Experiment [1] concerns the target purified HBs antigen particle produced from an HBV sequence construct including the pre-S2 region with none of the pre-S1 region and deletions upstream of the S ATG and the S region with deletion of the S ATG (e.g., the construct of FIG. 7B) (Hepatitis B virus (subtype not stated for the construct); Hepatitis B virus (subtype not stated)).
The target of experiment [2] is purified HBs antigen particle produced from an HBV sequence construct including the pre-S2 region with none of the pre-S1 region and deletions upstream of the S ATG and downstream of the S ATG through the XBaI site, and the S region with deletion of the S ATG (e.g. the construct of FIG. 2A) (Hepatitis B virus (subtype not stated for the construct); Hepatitis B virus (subtype not stated)).

The target of experiment [3] is purified HBs antigen particles produced by construct including the entire pre-S1-pre-S2-S region under control of the LTR region of rous sarcoma virus, with additional cotransfection with S (FIG. 13) (Hepatitis B virus (subtype not stated)).
The target in experiment [4] is purified HBs antigen particle produced from an HBV sequence construct including the pre-S1 region with total deletion of pre-S2 and deletions upstream of the pre-S2 ATG and the S region with deletion of the S ATG (e.g., the construct of FIG. 6B) (Hepatitis B virus (subtype not stated for the construct); Hepatitis B virus (subtype not stated)).
In experiment [5] the target is purified HBs antigen particle produced from an HBV sequence construct including the pre-S1 region with total deletion of pre-S2 and deletions upstream of the pre-S2 ATG and the S region with deletion of the S ATG and downstream the S ATG through the XBaI site (e.g. the construct of FIG. 1A) (Hepatitis B virus (subtype not stated for the construct); Hepatitis B virus (subtype not stated)).

Regarding anti-pre-S1 monoclonal antibody MA 18/7, the E492 is 0 in experiment [1]; 0 in experiment [2]; 0.125 in experiment [3]; 1.27 in experiment [4]; 0.839 in experiment [5].
